Data reported in US20050182242A1, “Global analysis of protein activities using proteome chips” (priority 2001, published 2005).

B1: TAT2: yeast GST-HisX6 fusion protein on proteome chip (protein, UniProt P38967 1-592, looked up)
Tryptophan permease: MTEDFISSVKRSNEELKERKSNFGFVEYKSKQLTSSSSHNSNSSHHDDDNQHGKRNIFQRCVDSFKSPLDGSFDTSNLKRTLKPRHLIMIAIGGSIGTGLFVGSGKAIAEGGPLGVVIGWAIAGSQIIGTIHGLGEITVRFPVVGAFANYGTRFLDPSISFVVSTIYVLQWFFVLPLEIIAAAMTVQYWNSSIDPVIWVAIFYAVIVSINLFGVRGFGEAEFAFSTIKAITVCGFIILCVVLICGGGPDHEFIGAKYWHDPGCLANGFPGVLSVLVVASYSLGGIEMTCLASGETDPKGLPSAIKQVFWRILFFFLISLTLVGFLVPYTNQNLLGGSSVDNSPFVIAIKLHHIKALPSIVNAVILISVLSVGNSCIFASSRTLCSMAHQGLIPWWFGYIDRAGRPLVGIMANSLFGLLAFLVKSGSMSEVFNWLMAIAGLATCIVWLSINLSHIRFRLAMKAQGKSLDELEFVSAVGIWGSAYSALINCLILIAQFYCSLWPIGGWTSGKERAKIFFQNYLCALIMLFIFIVHKIYYKCQTGKWWGVKALKDIDLETDRKDIDIEIVKQEIAEKKMYLDSRPWYVRQFHFWC
modifications: GST-His6 tag
notes: yeast GST-HisX6 fusion protein on proteome chip
B2: FRM2: yeast GST-HisX6 fusion protein on proteome chip (protein, UniProt P37261 1-193, looked up)
nitroreductase FRM2: MSPTGNYLNAITNRRTIYNLKPELPQGVGLDDVKRTVHVILKNTPTAFNSQVNRAVIIVGDTHKRIWDAVASAMPTAEAKKRPESCRDEAYGSVIFFTDEGPTEKLQRDFPALAAAFPTCAAHTTGAVQIQSWTALELLGLGANLQHYNDYVKSALPQDVPIAWTVQSQLVFGVPTALPEEKTFINNVINVYH
modifications: GST-His6 fusion tag
notes: as for B1
B3: FUR1: yeast GST-HisX6 fusion protein on proteome chip (protein, UniProt P18562 1-216, looked up)
Uracil …: MSSEPFKNVYLLPQTNQLLGLYTIIRNKNTTRPDFIFYSDRIIRLLVEEGLNHLPVQKQIVETDTNENFEGVSFMGKICGVSIVRAGESMEQGLRDCCRSVRIGKILIQRDEETALPKLFYEKLPEDISERYVFLLDPMLATGGSAIMATEVLIKRGVKPERIYFLNLICSKEGIEKYHAAFPEVRIVTGALDRGLDENKYLVPGLGDFGDRYYCV
modifications: GST-His6 fusion tag
notes: as for B1
B4: MPS1: yeast GST-HisX6 fusion protein on proteome chip (protein, UniProt P54199 1-764, looked up)
Serine/threonine-protein …: MSTNSFHDYVDLKSRTNTRQFSDDEEFTTPPKLSNFGSALLSHTEKTSASEILSSHNNDKIANRLEEMDRSSSRSHPPPSMGNLTSGHTSTSSHSTLFGRYLRNNHQTSMTTMNTSDIEINVGNSLDKSFERIRNLRQNMKEDITAKYAERRSKRFLISNRTTKLGPAKRAMTLTNIFDEDVPNSPNQPINARETVELPLEDSHQTNFKETKRNTDYDSIDFGDLNPIQYIKKHNLPTSDLPLISQIYFDKQREENRQAALRKHSSRELLYKSRSSSSSLSSNNLLANKDNSITSNNGSQPRRKVSTGSSSSKSSIEIRRALKENIDTSNNSNFNSPIHKIYKGISRNKDSDSEKREVLRNISINANHADNLLQQENKRLKRSLDDAITNENINSKNLEVFYHRPAPKPPVTKKVEIVEPAKSASLSNNRNIITVNDSQYEKIELLGRGGSSRVYKVKGSGNRVYALKRVSFDAFDDSSIDGFKGEIELLEKLKDQKRVIQLLDYEMGDGLLYLIMECGDHDLSQILNQRSGMPLDFNFVRFYTKEMLLCIKVVHDAGIVHSDLKPANFVLVKGILKIIDFGIANAVPEHTVNIYRETQIGTPNYMAPEALVAMNYTQNSENQHEGNKWKVGRPSDMWSCGCIIYQMIYGKPPYGSFQGQNRLLAIMNPDVKIPFPEHTSNNEKIPKSAIELMKACLYRNPDKRWTVDKVLSSTFLQPFMISGSIMEDLIRNAVRYGSEKPHISQDDLNDVVDTVLRKFADYKI
modifications: GST-HisX6 tag
notes: as for B1
B5: FBP26: yeast GST-HisX6 fusion protein on proteome chip (protein, UniProt P32604 1-452, looked up)
Fructose-2,6-bisphosphatase: MGYSTISNDNDIKVCVIMVGLPARGKSFISQKIIRYLSWLSIKAKCFNVGNYRRDVSGNVPMDAEFFNFENTDNFKLRELAAQNAIKDIVNFFTKEDGSVAVFDATNSTRKRRKWLKDICEKNNIQPMFLESWSNDHELIINNAKDIGSTSPDYENSEPHVAEADFLERIRQYERFYEPLDPQKDKDMTFIKLVNIIEEVVINKIRTYLESRIVFYVMNIRPKPKYIWLSRHGESIYNVEKKIGGDSSLSERGFQYAKKLEQLVKESAGEINLTVWTSTLKRTQQTANYLPYKKLQWKALDELDAGVCDGMTYEEIEKEYPEDFKARDNDKYEYRYRGGESYRDVVIRLEPVIMELERQENVLIITHQAVLRCIYAYFMNVPQEESPWMSIPLHTLIKLEPRAYGTKVTKIKANIPAVSTYKEKGTSQVGELSQSSTKLHQLLNDSPLEDKF
modifications: GST-His6 tag
notes: as for B1
B6: APS2: yeast GST-HisX6 fusion protein on proteome chip (protein, UniProt Q00381 1-147, looked up)
AP-2 complex subunit sigma: MAVQFILCFNKQGVVRLVRWFDVHSSDPQRSQDAIAQIYRLISSRDHKHQSNFVEFSDSTKLIYRRYAGLYFVMGVDLLDDEPIYLCHIHLFVEVLDAFFGNVCELDIVFNFYKVYMIMDEMFIGGEIQEISKDMLLERLSILDRLD
modifications: GST-HisX6 tag
notes: as for B1
B7: PEX4: yeast GST-HisX6 fusion protein on proteome chip (protein, UniProt P29340 1-183, looked up)
Ubiquitin-conjugating enzyme …: MPNFWILENRRSYTSDTCMSRIVKEYKVILKTLASDDPIANPYRGIIESLNPIDETDLSKWEAIISGPSDTPYENHQFRILIEVPSSYPMNPPKISFMQNNILHCNVKSATGEICLNILKPEEWTPVWDLLHCVHAVWRLLREPVCDSPLDVDIGNIIRCGDMSAYQGIVKYFLAERERINNH
modifications: GST-His6 tag
notes: as for B1
B8: VTC4: yeast GST-HisX6 fusion protein on proteome chip (protein, UniProt P47075 1-721, looked up)
Vacuolar transporter …: MKFGEHLSKSLIRQYSYYYISYDDLKTELEDNLSKNNGQWTQELETDFLESLEIELDKVYTFCKVKHSEVFRRVKEVQEQVQHTVRLLDSNNPPTQLDFEILEEELSDIIADVHDLAKFSRLNYTGFQKIIKKHDKKTGFILKPVFQVRLDSKPFFKENYDELVVKISQLYDIARTSGRPIKGDSSAGGKQQNFVRQTTKYWVHPDNITELKLIILKHLPVLVFNTNKEFEREDSAITSIYFDNENLDLYYGRLRKDEGAEAHRLRWYGGMSTDTIFVERKTHREDWTGEKSVKARFALKERHVNDFLKGKYTVDQVFAKMRKEGKKPMNEIENLEALASEIQYVMLKKKLRPVVRSFYNRTAFQLPGDARVRISLDTELTMVREDNFDGVDRTHKNWRRTDIGVDWPFKQLDDKDICRFPYAVLEVKLQTQLGQEPPEWVRELVGSHLVEPVPKFSKFIHGVATLLNDKVDSIPFWLPQMDVDIRKPPLPTNIEITRPGRSDNEDNDFDEDDEDDAALVAAMTNAPGNSLDIEESVGYGATSAPTSNTNHVVESANAAYYQRKIRNAENPISKKYYEIVAFFDHYFNGDQISKIPKGTTFDTQIRAPPGKTICVPVRVEPKVYFATERTYLSWLSISILLGGVSTTLLTYGSPTAMIGSIGFFITSLAVLIRTVMVYAKRVVNIRLKRAVDYEDKIGPGMVSVFLILSILFSFFCNLVAK
modifications: GST-HisX6 tag
notes: as for B1

Tested on: phosphatidylcholine (PC) liposomes
Experiment: Yeast proteome chip probed with PC liposomes
Conditions: liposome binding signal on yeast proteome chip, Cy3-streptavidin detection
In short: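 Binding of arrayed yeast proteins to sonicated PC liposomes, with or without 5% (w/w) phosphoinositide, is scored by streptavidin fluorescence on the biotinylated lipid tracer.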

First: B1
Second: B2
The PC of the first is higher: 83.93 for the first, 63.39 for the second.

Going from B3 to B4, the PC rises from 95.67 to 4374.59.

First: B5
Second: B6
The PC of the first is higher: 107.41 for the first, 58.70 for the second.

Going from B7 to B8, the PC falls from 69.85 to 66.03.

Tested on: PI(3,4,5)P3 liposomes
Experiment: Yeast proteome chip probed with PI(3,4,5)P3 liposomes
Conditions: liposome binding signal on yeast proteome chip, Cy3-streptavidin detection

Compared with B1, B2 is lower in “PI(3, 4, 5)P3” value: 68.29 for the first, 16.88 for the second.

Going from B3 to B4, the “PI(3, 4, 5)P3” value rises from 72.22 to 1864.12.

Compared with B5, B6 is lower in “PI(3, 4, 5)P3” value: 25.31 for the first, 15.97 for the second.

Going from B7 to B8, the “PI(3, 4, 5)P3” value rises from 21.49 to 25.31.

Tested on: PI(3,4)P2 liposomes
Experiment: Yeast proteome chip probed with PI(3,4)P2 liposomes
Conditions: liposome binding signal on yeast proteome chip, Cy3-streptavidin detection

First: B1
Second: B2
The “PI(3, 4)P2” value of the first is higher: 62.48 for the first, 59.34 for the second.

First: B3
Second: B4
The “PI(3, 4)P2” value of the first is lower: 210.19 for the first, 4216.40 for the second.

Going from B5 to B6, the “PI(3, 4)P2” value rises from 48.51 to 56.51.

Going from B7 to B8, the “PI(3, 4)P2” value rises from 8.63 to 30.45.

Tested on: PI(3)P liposomes
Experiment: Yeast proteome chip probed with PI(3)P liposomes
Conditions: liposome binding signal on yeast proteome chip, Cy3-streptavidin detection

Going from B1 to B2, the “PI(3)P” value falls from 60.50 to 3.50.

Compared with B3, B4 is higher in “PI(3)P” value: 112.25 for the first, 310.00 for the second.

Going from B5 to B6, the “PI(3)P” value rises from 5.75 to 39.50.

First: B7
Second: B8
The “PI(3)P” value of the first is lower: 1.75 for the first, 8.50 for the second.

Tested on: PI(4,5)P2 liposomes
Experiment: Yeast proteome chip probed with PI(4,5)P2 liposomes
Conditions: liposome binding signal on yeast proteome chip, Cy3-streptavidin detection

Going from B1 to B2, the “PI(4, 5)P2” value falls from 85.79 to 75.34.

Going from B3 to B4, the “PI(4, 5)P2” value rises from 111.70 to 1084.79.

Compared with B5, B6 is higher in “PI(4, 5)P2” value: 47.90 for the first, 103.65 for the second.

Going from B7 to B8, the “PI(4, 5)P2” value falls from 28.31 to 26.78.

Tested on: PI(4)P liposomes
Experiment: Yeast proteome chip probed with PI(4)P liposomes
Conditions: liposome binding signal on yeast proteome chip, Cy3-streptavidin detection

Going from B1 to B2, the “PI(4)P” value falls from 51.39 to 12.63.

Compared with B3, B4 is higher in “PI(4)P” value: 148.94 for the first, 6148.60 for the second.

Going from B5 to B6, the “PI(4)P” value rises from 62.06 to 159.82.

First: B7
Second: B8
The “PI(4)P” value of the first is lower: 57.48 for the first, 99.07 for the second.
